Results published in patent US20090093372A1.

Target: human E-cadherin on human embryonic stem cells (hESCs; CyT203) (human) (UniProt P12830)
Test: cell-based or functional assay

Sequence of UniProt P12830 (P12830 155-882 limits assumed): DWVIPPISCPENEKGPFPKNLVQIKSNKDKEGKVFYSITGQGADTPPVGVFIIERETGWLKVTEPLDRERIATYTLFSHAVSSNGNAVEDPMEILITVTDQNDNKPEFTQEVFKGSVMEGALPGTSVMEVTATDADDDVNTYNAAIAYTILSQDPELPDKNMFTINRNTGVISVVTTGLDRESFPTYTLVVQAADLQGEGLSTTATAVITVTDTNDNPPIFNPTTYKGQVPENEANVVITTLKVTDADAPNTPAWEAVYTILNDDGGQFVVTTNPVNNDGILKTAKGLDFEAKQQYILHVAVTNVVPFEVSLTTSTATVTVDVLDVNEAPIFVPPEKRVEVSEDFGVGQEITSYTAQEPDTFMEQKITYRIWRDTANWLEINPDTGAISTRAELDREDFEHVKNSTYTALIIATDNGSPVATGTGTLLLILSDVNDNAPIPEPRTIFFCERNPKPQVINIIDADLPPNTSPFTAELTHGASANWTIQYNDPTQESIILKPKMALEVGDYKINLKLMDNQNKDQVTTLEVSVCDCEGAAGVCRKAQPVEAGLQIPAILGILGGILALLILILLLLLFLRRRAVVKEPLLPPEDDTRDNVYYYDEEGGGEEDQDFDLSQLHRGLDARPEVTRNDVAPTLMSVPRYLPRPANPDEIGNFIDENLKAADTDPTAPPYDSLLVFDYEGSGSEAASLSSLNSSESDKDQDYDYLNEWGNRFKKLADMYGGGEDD

percentage of CXCR4 positive cells (flow cytometry after 3 days of differentiation to definitive endoderm; antibody at 5 µg/mL on day 1): 93%
Substance: mouse anti-human E-cadherin antibody (Zymed Cat. No. 13-1700)
